Article PMC3485041, “In Vitro Site Selection of a Consensus Binding Site for the Drosophila melanogaster Tbx20 Homolog Midline”

Target: T1, Midline T-box domain (MidTbx) (Drosophila melanogaster, UniProt Q8SYY8 171-393)
T1 sequence: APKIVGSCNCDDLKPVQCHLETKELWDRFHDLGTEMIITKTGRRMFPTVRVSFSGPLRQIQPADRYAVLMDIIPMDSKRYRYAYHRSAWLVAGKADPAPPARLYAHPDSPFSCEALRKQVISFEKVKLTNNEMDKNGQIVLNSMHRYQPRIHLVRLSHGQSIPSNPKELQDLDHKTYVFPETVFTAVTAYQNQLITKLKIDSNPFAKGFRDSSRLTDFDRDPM
Test: EMSA; 20 mM HEPES pH 7.9, 100 mM KCl, 0.2 mM EDTA, 0.2 mM EGTA, 20% glycerol, 0.1% NP40, 0.5 mM DTT, 10 mg/ml BSA, 8 ng/ul poly(dI-dC); room temperature 1 h; 15 fmol
Conditions: protein: recombinant, tags: C-terminal 6xHis (pET-21a), blunt

| Binder | binding result (label: 5' biotin (primer F)) | binding result (label: 5' biotin) | other results |
| --- | --- | --- | --- |
| clone 67 (dsDNA) DNA 1: CAGGTCAGTTCAGCGGATCCTGTCGCTACGGAGGTGATTACACGCGAAATCGAGGCGAATTCAGTGCAACTGCAGC DNA 2: GCTGCAGTTGCACTGAATTCGCCTCGATTTCGCGTGTAATCACCTCCGTAGCGACAGGATCCGCTGAACTGACCTG | binds |  |  |
| clone 2 (dsDNA) DNA 1: GCTGCAGTTGCACTGAATTCGCCTCACCATCACACCAGCGAAGTGACAGTTCGACAGGATCCGCTGAACTGACCTG DNA 2: CAGGTCAGTTCAGCGGATCCTGTCGAACTGTCACTTCGCTGGTGTGATGGTGAGGCGAATTCAGTGCAACTGCAGC | binds |  |  |
| clone 4 (dsDNA) DNA 1: GCTGCAGTTGCACTGAATTCGCCTCCGTGCGTACGTGTCAATTCGTCAAGGCCGACAGGATCCGCTGAACTGACCTG DNA 2: CAGGTCAGTTCAGCGGATCCTGTCGGCCTTGACGAATTGACACGTACGCACGGAGGCGAATTCAGTGCAACTGCAGC | binds |  |  |
| clone 50 (dsDNA) DNA 1: CAGGTCAGTTCAGCGGATCCTGTCGAGGTGTGGCACTGTGAAGTTCGCGAGGAGGCGAATTCAGTGCAACTGCAGC DNA 2: GCTGCAGTTGCACTGAATTCGCCTCCTCGCGAACTTCACAGTGCCACACCTCGACAGGATCCGCTGAACTGACCTG | binds |  |  |
| mid.Najand Region 2 (dsDNA) DNA 1: CAAGGTGTCAAGGAA DNA 2: TTCCTTGACACCTTG |  | binds |  |
| clone 72 (dsDNA) DNA 1: GCTGCAGTTGCACTGAATTCGCCTCAGCGCCCAGTTGGTGTTAAGCCAGTCCGACAGGATCCGCTGAACTGACCTG DNA 2: CAGGTCAGTTCAGCGGATCCTGTCGGACTGGCTTAACACCAACTGGGCGCTGAGGCGAATTCAGTGCAACTGCAGC | binds |  |  |
| clone 74 (dsDNA) DNA 1: CAGGTCAGTTCAGCGGATCCTGTCGCCTTAAGGTGCGGGCAGACAGGTGTGGAGGCGAATTCAGTGCAACTGCAGC DNA 2: GCTGCAGTTGCACTGAATTCGCCTCCACACCTGTCTGCCCGCACCTTAAGGCGACAGGATCCGCTGAACTGACCTG | binds |  |  |
| T-site (Brachyury palindrome) (dsDNA) DNA 1: AATTTCACACCTAGGTGTGAAATT DNA 2: AATTTCACACCTAGGTGTGAAATT |  |  | binding result (label: 5' biotin, self-complementary, 2 copies): binds |
| clone 42 (dsDNA) DNA 1: CAGGTCAGTTCAGCGGATCCTGTCGGGTGTTGATGGTGTTAACGCGCGAGGGAGGCGAATTCAGTGCAACTGCAGC DNA 2: GCTGCAGTTGCACTGAATTCGCCTCCCTCGCGCGTTAACACCATCAACACCCGACAGGATCCGCTGAACTGACCTG | binds |  |  |
| clone 43 (dsDNA) DNA 1: CAGGTCAGTTCAGCGGATCCTGTCGGGGGGCTGGTGCGAAAGTGTGTAGTGGCAGGTCAGTTCAGCGGATCCTGTCG DNA 2: CGACAGGATCCGCTGAACTGACCTGCCACTACACACTTTCGCACCAGCCCCCCGACAGGATCCGCTGAACTGACCTG | binds |  |  |
| mid.Najand (dsDNA) DNA 1: CAAGGTGTCAAGGCG DNA 2: CGCCTTGACACCTTG |  | binds |  |
| clone 75 (dsDNA) DNA 1: CAGGTCAGATCAGCGGATCCTGTCGCGACGCCTTGGGGGTGTCACGGCGCGGCAGGTCAGATCAGCGGATCCTGTCG DNA 2: CGACAGGATCCGCTGATCTGACCTGCCGCGCCGTGACACCCCCAAGGCGTCGCGACAGGATCCGCTGATCTGACCTG | binds |  |  |
| mid.Liu (dsDNA) DNA 1: GGAAGTAGGTCAAG DNA 2: CTTGACCTACTTCC |  | no binding |  |
| Tbx20.MacIndoe (dsDNA) DNA 1: GGAGGTGTGAGGCGA DNA 2: TCGCCTCACACCTCC |  | binds |  |
| clone 57 (dsDNA) DNA 1: CAGGTCAGTTCAGCGGATCCTGTCGACATGGGAGGCTGTTACGGCGCGAACGAGGCGAATTCAGTGCAACTGCAGC DNA 2: GCTGCAGTTGCACTGAATTCGCCTCGTTCGCGCCGTAACAGCCTCCCATGTCGACAGGATCCGCTGAACTGACCTG | binds |  |  |
| mid.Najand Region 1 (dsDNA) DNA 1: CACCCCCCCAAGGCG DNA 2: CGCCTTGGGGGGGTG |  | no binding |  |
